Data set [1] has as its target T1, hnRNPK KH3 (Homo sapiens, UniProt P61978 384-463). Description: ITC. (ITC needs no label: the signal is the heat of the interaction.)
The target of data set [2] is T1, hnRNPK KH3. Description: ITC. This is another data set of the same source.

Read-outs that look alike come from different tables or passages of the source.

T1 sequence (P61978 384-463): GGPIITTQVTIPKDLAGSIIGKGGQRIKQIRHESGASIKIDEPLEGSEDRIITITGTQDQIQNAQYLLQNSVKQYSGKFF

CUAAAGC (ssRNA) [mutant heptamer RNA]: the binding result with hnRNPK KH3 [1] is listed as “no binding”.
Consider CUCCCGC (ssRNA) [heptamer RNA], for which the Kd was 4.74 ± 1 µM with hnRNPK KH3 [2] and 4.31 ± 0.68 µM with hnRNPK KH3 [1].

By Kd is commonly meant a measure of binding affinity in units of concentration. The low end stands for tighter binding, the high end for weaker binding.

The values are drawn from paper PMC10023864.
